According to the Immune Epitope Database (IEDB):

Tests used:
HLA-A*01:01 = experiment: IEDB peptide-MHC binding, purified MHC/direct/fluorescence; filed as Kd, often an IC50 or EC50 that approximates it; ≥ and ≤ were set here for values at or beyond the usual limits of such assays; settings: source organism: Salmonella enterica
HLA-A*02:01 = experiment: as above; settings: source organism: Salmonella enterica
HLA-A*03:01 = experiment: as above; settings: source organism: Salmonella enterica
HLA-A*11:01 = experiment: as above; settings: source organism: Salmonella enterica
HLA-A*26:01 = experiment: as above; settings: source organism: Salmonella enterica subsp. enterica serovar Typhimurium str. LT2
HLA-A*26:02 = experiment: as above; settings: source organism: Salmonella enterica subsp. enterica serovar Typhimurium str. LT2
HLA-A*31:01 = experiment: as above; settings: source organism: Salmonella enterica
HLA-B*08:02 = experiment: as above; settings: source organism: Salmonella enterica subsp. enterica serovar Typhimurium str. LT2
HLA-B*15:09 = experiment: as above; settings: source organism: Salmonella enterica subsp. enterica serovar Typhimurium str. LT2
HLA-B*15:17 = experiment: as above; settings: source organism: Salmonella enterica
HLA-B*27:05 = experiment: as above; settings: source organism: Salmonella enterica
HLA-B*38:01 = experiment: as above; settings: source organism: Salmonella enterica subsp. enterica serovar Typhimurium str. LT2
HLA-B*40:01 [1] = experiment: as above; settings: source organism: Salmonella enterica
HLA-B*46:01 = experiment: as above; settings: source organism: Salmonella enterica
HLA-B*48:01 = experiment: as above; settings: source organism: Salmonella enterica
HLA-B*57:01 = experiment: as above; settings: source organism: Salmonella enterica
HLA-B*58:01 = experiment: as above; settings: source organism: Salmonella enterica
HLA-A*69:01 = experiment: IEDB peptide-MHC binding, purified MHC/competitive/fluorescence; filed as Kd, often an IC50 or EC50 that approximates it; ≥ and ≤ were set here for values at or beyond the usual limits of such assays; settings: source organism: Salmonella enterica subsp. enterica serovar Typhi
HLA-B*08:01 = experiment: as above; settings: source organism: Salmonella enterica subsp. enterica serovar Typhi
HLA-B*15:01 = experiment: as above; settings: source organism: Salmonella enterica subsp. enterica serovar Typhi
HLA-A*32:15 = experiment: as above; settings: source organism: Shigella flexneri 5 str. 8401
HLA-A*68:23 = experiment: as above; settings: source organism: Shigella flexneri 5 str. 8401
HLA-B*15:42 = experiment: as above; settings: source organism: Shigella flexneri 5 str. 8401
HLA-B*40:01 [2] = experiment: as above; settings: source organism: Shigella flexneri 5 str. 8401
HLA-B*40:13 = experiment: as above; settings: source organism: Shigella flexneri 5 str. 8401
HLA-B*45:06 = experiment: as above; settings: source organism: Shigella flexneri 5 str. 8401
HLA-B*83:01 = experiment: as above; settings: source organism: Shigella flexneri 5 str. 8401

## EIIFYHPTF
HLA-A*01:01
  Kd: ≥ 20 µM
HLA-A*02:01
  Kd: ≥ 20 µM
HLA-A*03:01
  Kd: ≥ 20 µM
HLA-A*11:01
  Kd: ≥ 20 µM
HLA-A*26:01
  Kd: 0.803 µM
HLA-A*26:02
  Kd: ≤ 0.001 µM
HLA-A*31:01
  Kd: ≥ 20 µM
HLA-B*08:02
  Kd: ≥ 20 µM
HLA-B*15:09
  Kd: ≥ 20 µM
HLA-B*15:17
  Kd: 0.107 µM
HLA-B*27:05
  Kd: ≥ 20 µM
HLA-B*38:01
  Kd: ≥ 20 µM
HLA-B*40:01 [1]
  Kd: ≥ 20 µM
HLA-B*46:01
  Kd: ≥ 20 µM
HLA-B*48:01
  Kd: ≥ 20 µM
HLA-B*57:01
  Kd: ≥ 20 µM
HLA-B*58:01
  Kd: ≥ 20 µM
HLA-A*69:01
  Kd: ≥ 20 µM
HLA-B*08:01
  Kd: ≥ 20 µM
HLA-B*15:01
  Kd: ≥ 20 µM

## HEWKIPLLI
HLA-A*32:15
  Kd: 2.61 µM
HLA-A*68:23
  Kd: 0.278 µM
HLA-B*15:42
  Kd: ≥ 5 µM
HLA-B*40:01 [2]
  Kd: 0.0097 µM
HLA-B*40:13
  Kd: 0.0109 µM
HLA-B*45:06
  Kd: ≥ 5 µM
HLA-B*83:01
  Kd: 10.5 µM
